The target of experiment [1] is T1, human recombinant α3β1 integrin (Homo sapiens, UniProt P05556+P26006).
T1 construct: purchased R&D Systems
The experiment in a line: Phage binding assay to immobilized recombinant proteins. To be noted: increasing molar concentrations, relative to unrelated control peptide. As to the method:
Phage binding to recombinant proteins (α3β1, α6β1, α6β4, NRP-1 and SDC-1) and BSA (Sigma) were performed as described (Cardó-Vila, et al., 2008, PLoS One 3:e3452). Briefly, 100 ng of each of the indicated proteins dissolved in 50 μL PBS were immobilized in microtiter wells overnight (ON) at 4° C. […] After 2 h at RT, wells were gently washed 10 times with PBS, and phage was recovered by host bacterial infection and represented as “Relative TU” as an empirical measure of the biological replicates and controls when compared to one another as described (Arap, W. et al., Nat. Med., 2002, 8:121-127; Cardó-Vila, et al., 2008, PLoS One 3:e3452). Human recombinant proteins α3β1, α6β1, α6β4, NRP-1 and SDC-1 were all commercially obtained from R&D Systems. Recombinant GST and […]-GST were produced in E. coli transformed with the pGEX4T-1 plasmid (Amersham, GE Healthcare) and purified with standard protocols. All synthetic peptides were custom manufactured by Merrifield synthesis and quality-controlled to the necessary specifications (Biomatik and PolyPeptide Laboratories).

A further experiment deals with A549 cell monolayer. Description: Cellular barrier permeability (Transwell) assay and empirical model of phage transport. Conditions: A549 cells, different concentrations, 1 h. It is filed as in vitro ADME, human. The source says: To investigate the transport of phage particles across the cellular monolayer, data from the in vitro Transwell assays (FIG. 3E) was used to quantify the parameters of an empirical mathematical model of phage accumulation in the bottom chamber (Equation 1). The mass of phage particles [N(t), measured experimentally as TU] transported across the cellular barrier at time t, was represented by Equation (Eq. 1), as follows:
where, Ns represent the mass of phage particles (TU) in the bottom chamber at saturation; k is the transport rate constant, the inverse of which gives the characteristic time (τ=1/k) of the transport process. The first derivative of Equation 1
provides the time-dependent transport rate of phage particles across the in vitro cellular barrier. Least squares fitting of the model to the experimental data was performed in MATLAB. The transport rate decays exponentially over time at rate k, and its maximal value can be determined at time t=0 as […]

In experiment [2] the target is T2, mouse α3β1 integrin expressed on the plasma membrane of AT1 and AT2 alveolar epithelial cells and club cells (mouse, UniProt Q62470 33-1053; P09055 21-798).
T2 construct: whole, on cells; Target on lung cells of BALB/c mice after aerosol administration of phage; also called α3β1 integrins in lung tissue; α3β1 integrin in vivo
The experiment in a line: TU count of phage recovered from flow-sorted mouse lung cells after aerosol administration.
Description: Cells were sorted in an iCyt sy3200 (Sony) cell sorter previously calibrated with compensation beads (UltraComp eBeads, Thermo Scientific). AT1-, AT2-enriched cell populations and macrophages were centrifuged, and the number of phage particles per cell type was determined by TU count.
To further evaluate the bioavailability of [sequence]-displaying phage particles after aerosol administration, the binding capabilities of the phage particles to specific lung cells were determined by flow cytometry. […] Specific cell populations of the lung were isolated and flow cytometry sorted in three main cell populations (FIG. 5A): AT1-enriched population (EPCAM⁺, CD45⁻, CD31⁻, T1α^high); AT2-enriched population (EPCAM⁺, CD45⁻, CD31⁻, Tα^low) and mononuclear phagocytes (EPCAM⁻, CD45⁺, CD31⁻, F4/80⁺). The number of either targeted or control phage particles bound to each cell population was determined by TU counting after infection with a host bacterium.

Experiment [3] has as its target T3, human recombinant α3β1 integrin (human, UniProt P26006 33-991; P05556 21-728).
T3 construct: Bought protein, 100 ng immobilised in microtiter wells; also called α3β1 integrins
Description: competition of phage binding to immobilised α3β1 (FIG. 3B).

Ends that are not written are not given here.

T1 sequence (P26006 33-991 limits assumed): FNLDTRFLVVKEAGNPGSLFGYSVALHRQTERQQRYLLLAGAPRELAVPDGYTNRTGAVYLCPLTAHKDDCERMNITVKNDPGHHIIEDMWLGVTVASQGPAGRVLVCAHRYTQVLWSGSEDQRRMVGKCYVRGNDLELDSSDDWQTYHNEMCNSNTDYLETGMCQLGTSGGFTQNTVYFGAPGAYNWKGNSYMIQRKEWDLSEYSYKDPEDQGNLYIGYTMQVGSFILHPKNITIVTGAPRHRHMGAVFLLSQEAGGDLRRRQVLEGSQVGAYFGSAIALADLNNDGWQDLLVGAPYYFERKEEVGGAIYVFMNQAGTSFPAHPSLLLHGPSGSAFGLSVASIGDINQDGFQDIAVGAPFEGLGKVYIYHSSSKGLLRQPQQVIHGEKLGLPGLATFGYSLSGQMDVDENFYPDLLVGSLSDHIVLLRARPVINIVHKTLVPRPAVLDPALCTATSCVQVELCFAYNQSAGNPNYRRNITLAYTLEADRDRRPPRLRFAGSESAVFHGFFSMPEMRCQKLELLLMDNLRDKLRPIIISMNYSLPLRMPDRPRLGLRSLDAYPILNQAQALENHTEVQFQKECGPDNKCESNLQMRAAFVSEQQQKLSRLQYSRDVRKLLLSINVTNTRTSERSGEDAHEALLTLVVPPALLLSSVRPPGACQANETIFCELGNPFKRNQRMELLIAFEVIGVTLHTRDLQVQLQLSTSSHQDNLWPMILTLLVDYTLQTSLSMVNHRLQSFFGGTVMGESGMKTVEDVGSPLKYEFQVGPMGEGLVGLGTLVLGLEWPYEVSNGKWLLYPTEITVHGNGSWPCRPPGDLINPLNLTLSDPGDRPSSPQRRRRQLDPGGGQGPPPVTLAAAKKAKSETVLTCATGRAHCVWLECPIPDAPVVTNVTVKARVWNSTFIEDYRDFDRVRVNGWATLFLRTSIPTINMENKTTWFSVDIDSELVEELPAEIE
T1 sequence (P05556 21-728 limits assumed): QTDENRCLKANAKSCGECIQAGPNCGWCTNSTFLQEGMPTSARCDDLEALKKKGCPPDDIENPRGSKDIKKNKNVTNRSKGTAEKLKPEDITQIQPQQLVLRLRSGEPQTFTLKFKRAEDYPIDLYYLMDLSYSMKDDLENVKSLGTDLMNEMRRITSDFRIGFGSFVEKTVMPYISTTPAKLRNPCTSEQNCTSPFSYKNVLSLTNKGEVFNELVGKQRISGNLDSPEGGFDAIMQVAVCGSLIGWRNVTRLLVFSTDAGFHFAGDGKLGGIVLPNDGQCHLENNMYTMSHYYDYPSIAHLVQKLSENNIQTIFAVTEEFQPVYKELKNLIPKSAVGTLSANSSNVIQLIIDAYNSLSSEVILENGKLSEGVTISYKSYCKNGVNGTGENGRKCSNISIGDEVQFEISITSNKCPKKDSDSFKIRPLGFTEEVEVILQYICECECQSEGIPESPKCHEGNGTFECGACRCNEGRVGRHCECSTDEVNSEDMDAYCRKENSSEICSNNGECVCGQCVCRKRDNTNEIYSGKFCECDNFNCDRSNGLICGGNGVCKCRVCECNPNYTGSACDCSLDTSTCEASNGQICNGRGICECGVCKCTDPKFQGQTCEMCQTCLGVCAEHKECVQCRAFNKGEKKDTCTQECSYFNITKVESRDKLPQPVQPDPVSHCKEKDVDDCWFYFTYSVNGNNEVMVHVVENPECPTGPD
T3 sequence (P26006 33-991 limits assumed, chain 1 of 2): as the sequence (P26006 33-991 limits assumed) above
T3 sequence (P05556 21-728 limits assumed, chain 2 of 2): as the sequence (P05556 21-728 limits assumed) above
T2 sequence (Q62470 33-1053, chain 1 of 2): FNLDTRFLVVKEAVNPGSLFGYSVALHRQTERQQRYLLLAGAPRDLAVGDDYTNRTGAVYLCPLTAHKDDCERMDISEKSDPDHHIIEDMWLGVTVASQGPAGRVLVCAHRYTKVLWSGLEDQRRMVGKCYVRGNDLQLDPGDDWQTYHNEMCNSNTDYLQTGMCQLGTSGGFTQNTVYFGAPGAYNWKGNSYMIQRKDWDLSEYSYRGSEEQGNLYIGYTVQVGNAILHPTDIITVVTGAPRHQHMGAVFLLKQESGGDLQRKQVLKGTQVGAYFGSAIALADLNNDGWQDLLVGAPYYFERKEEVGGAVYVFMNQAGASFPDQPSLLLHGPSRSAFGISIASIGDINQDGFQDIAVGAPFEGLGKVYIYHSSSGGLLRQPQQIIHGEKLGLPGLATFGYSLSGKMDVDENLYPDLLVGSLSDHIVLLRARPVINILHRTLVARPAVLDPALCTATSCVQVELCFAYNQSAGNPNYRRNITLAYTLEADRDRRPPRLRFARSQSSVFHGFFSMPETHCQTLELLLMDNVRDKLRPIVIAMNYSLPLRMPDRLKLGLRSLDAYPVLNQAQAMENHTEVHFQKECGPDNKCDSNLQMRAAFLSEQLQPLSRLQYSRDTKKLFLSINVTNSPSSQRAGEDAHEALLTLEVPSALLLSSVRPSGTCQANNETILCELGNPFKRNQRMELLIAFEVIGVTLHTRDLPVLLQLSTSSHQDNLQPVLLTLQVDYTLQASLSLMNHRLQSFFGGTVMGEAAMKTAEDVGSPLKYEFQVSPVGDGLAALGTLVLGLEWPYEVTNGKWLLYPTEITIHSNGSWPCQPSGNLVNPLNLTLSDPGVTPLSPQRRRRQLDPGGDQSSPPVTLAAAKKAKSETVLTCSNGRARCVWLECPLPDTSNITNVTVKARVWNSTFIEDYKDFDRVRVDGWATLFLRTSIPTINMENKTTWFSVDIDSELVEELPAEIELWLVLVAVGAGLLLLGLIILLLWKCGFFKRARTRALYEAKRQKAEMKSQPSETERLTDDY
T2 sequence (P09055 21-798, chain 2 of 2): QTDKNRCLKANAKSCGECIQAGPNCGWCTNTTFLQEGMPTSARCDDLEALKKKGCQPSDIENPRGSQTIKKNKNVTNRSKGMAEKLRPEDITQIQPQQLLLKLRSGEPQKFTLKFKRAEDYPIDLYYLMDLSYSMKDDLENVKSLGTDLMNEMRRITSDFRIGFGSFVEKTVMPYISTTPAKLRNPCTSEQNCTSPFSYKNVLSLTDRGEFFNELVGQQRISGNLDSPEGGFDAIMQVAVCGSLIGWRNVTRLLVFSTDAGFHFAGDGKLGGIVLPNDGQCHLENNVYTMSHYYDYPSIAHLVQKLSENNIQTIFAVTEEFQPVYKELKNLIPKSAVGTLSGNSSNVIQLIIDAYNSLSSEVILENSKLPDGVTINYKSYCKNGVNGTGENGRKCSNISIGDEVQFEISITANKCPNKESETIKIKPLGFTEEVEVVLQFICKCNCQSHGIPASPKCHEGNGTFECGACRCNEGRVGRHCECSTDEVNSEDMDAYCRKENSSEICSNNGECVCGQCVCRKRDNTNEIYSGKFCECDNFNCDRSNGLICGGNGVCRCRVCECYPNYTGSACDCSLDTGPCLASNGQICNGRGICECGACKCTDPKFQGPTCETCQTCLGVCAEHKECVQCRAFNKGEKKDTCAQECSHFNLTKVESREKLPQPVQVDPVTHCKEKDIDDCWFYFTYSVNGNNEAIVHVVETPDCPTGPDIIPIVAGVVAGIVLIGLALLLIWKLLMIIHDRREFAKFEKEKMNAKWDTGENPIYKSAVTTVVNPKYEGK

With “CAKSMGDIVC [index ligand transport peptide; soluble synthetic peptide produced through Merrifield synthesis]”, the “inhibition of CAKSMGDIVC-displaying phage binding to α3β1 integrin” value in experiment [1] was “Concentration-dependent inhibition”.

Turning to “CAKSMGDIVC-GST: recombinant CAKSMGDIVC-GST produced in E. coli transformed with the pGEX4T-1 plasmid (CAKSMGDIVC-{GST}; cysteine pairing not given here)”, the “competition of CAKSMGDIVC-displaying phage transport in Transwell” value in the experiment on A549 cell monolayer is “concentration-dependent ligand-receptor specificity”.

B1: targeted CAKSMGDIVC-displaying phage particles (other, not shown: large carriers)
chain: CAKSMGDIVC
modifications: not fully specified (bridges); cysteine pairing not given here; also: displayed on phage pIII
notes: Whole phage particle; also called phage clone 2
As for B1, the “fold binding to AT1-enriched population against AT2-enriched cells” value in experiment [2] is about 2 fold.

B2: synthetic CAKSMGDIVC peptide (peptide)
peptide: CAKSMGDIVC
notes: Made by Merrifield synthesis; also called cognate synthetic peptide
On to B2, for which the binding result in experiment [3] was “binds”.

These data come from patent US20220332759A1, “TARGETED PULMONARY DELIVERY COMPOSITIONS AND METHODS USING SAME” (Rutgers, The State University of New Jersey, priority 2019, published 2022).
